The chains are these.
T1: recombinant human C1r CCP1-CCP2-SP-FLAG (human, UniProt P00736 307-705)
T1 construct: Truncated protein lacking the CUB1-EGF-CUB2 domain of C1r; also called human C1r CCP1-CCP2-SP I307-D705
T1 chain: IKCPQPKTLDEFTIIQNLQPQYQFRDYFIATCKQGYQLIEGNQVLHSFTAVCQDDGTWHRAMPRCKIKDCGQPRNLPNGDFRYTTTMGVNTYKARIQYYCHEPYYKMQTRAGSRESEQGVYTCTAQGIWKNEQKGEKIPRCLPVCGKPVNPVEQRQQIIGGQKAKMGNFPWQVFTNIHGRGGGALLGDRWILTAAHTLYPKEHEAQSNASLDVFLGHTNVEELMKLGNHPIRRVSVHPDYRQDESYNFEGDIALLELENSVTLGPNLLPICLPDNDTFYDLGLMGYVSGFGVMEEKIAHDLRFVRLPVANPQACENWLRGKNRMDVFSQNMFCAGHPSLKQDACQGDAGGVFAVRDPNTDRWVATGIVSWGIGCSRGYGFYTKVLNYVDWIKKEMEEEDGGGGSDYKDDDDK

T2: Native human C1r enzyme (Comptech A102) (human, UniProt P00736 18-705)
T2 construct: mature
T2 sequence (looked up): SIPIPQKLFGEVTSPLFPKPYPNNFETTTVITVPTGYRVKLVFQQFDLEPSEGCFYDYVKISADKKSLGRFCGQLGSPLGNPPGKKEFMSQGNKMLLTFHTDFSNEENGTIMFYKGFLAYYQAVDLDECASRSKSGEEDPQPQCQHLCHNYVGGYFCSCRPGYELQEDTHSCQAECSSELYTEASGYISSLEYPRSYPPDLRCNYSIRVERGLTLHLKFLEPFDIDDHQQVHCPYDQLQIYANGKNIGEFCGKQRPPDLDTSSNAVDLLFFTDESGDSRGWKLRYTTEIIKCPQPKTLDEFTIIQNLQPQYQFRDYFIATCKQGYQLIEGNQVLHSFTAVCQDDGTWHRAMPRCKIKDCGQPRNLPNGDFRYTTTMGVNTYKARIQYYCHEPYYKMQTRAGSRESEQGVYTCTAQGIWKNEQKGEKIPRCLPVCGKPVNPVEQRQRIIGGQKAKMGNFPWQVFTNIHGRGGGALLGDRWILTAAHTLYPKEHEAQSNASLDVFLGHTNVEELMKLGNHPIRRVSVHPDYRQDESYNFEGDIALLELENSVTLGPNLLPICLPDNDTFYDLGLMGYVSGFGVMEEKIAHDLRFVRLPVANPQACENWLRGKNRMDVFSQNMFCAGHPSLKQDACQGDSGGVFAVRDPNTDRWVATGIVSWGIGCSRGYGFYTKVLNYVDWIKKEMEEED

B1: COR0212bb-SG1148 (antibody, human IgG1, kappa, V domains shown)
VH: QEQLKESGGGLVTPGGTLTLTCTASGFSLSSYDMSWVRQAPGKGLDWIGIINTGGSAYYATWAKGRFTISKTSTTVDLKITSPTTEDTATYFCGRKINDAFDPWGPGTLVTVSS
VL: AQVLTQTPFSVSAAVGGTVTINCQASESISSNLAWYQQKPGQPPKLLIYDASDLASGVPSRFKGSGSGKQFTLTISGVQCDDAATYFCQHGWIYDTIDSNCFGGGTKVEIKR
notes: Anti-C1r antibody
B2: COR0208cc-SG1148 (antibody, human IgG1, kappa, V domains shown)
VH: QSVEESGGRLVTPGTPLTLTCTVSGFSLSNYYMNWVRQAPGKGLEWIGIIASDDNTWYASWAKGRFTISKTSTTVDLKITSPTTEDTATYFCARDLDVGYGSGWYDLWGQGTLVTVSS
VL: AAVLTQTPSPVSVAVGGTVTINCQASQSVYNNNYLAWYQQEPGHRPKLLIYRASKLASGVPSRFSGSGSGTQFTLTISGVQCDDAATYYCLGGYDDFTDTTFGGGTKVEIKR
notes: Anti-C1r antibody; also called COR208; COR208cc(-SG1148)
B3: COR0278bb-SG1148 (antibody, human IgG1, kappa, V domains shown)
VH: QSLEESGGRLVTPGTPLTLTCTASGFSLSSYDMTWVRQAPGKGLEWIGIIYTLGSAYYASWAKGRFTISRTSTTVDLKMTSPTTEDTATYFCARGGDSYGAVDTAFDLWGPGTLVTVSS
VL: AQVLTQTPSPVSAAVGGTVTISCQSSPSVYSNYLSWYQQKPGQPPKLLIYRASRLASGVPSRFKGSGSGTQFTLTISEVQCDDAATYYCQGYFGNGINAFGGGTKVEIKR
notes: Anti-C1r antibody
B4: COR0205gg-SG1148 (antibody, human IgG1, kappa, V domains shown)
VH: QSLEESGGGLFKPTDTLTLTCTVSGFSLSSNAMSWVRQAPGKGLEYIGIIYLTGVTYYATWAKGRFTISKTSTTVDLKITSPTTEDTATYFCAGGEFSLWGPGTLVTVSS
VL: DIIMTQTPASVEAAVGGTVTIKCQASQGIDNYFSWHQQKPGQPPKLLIYKASTLASGVSSRFKGSGSGTEFTLTISDLECDDAATYYCQCTYGYNINDNYGNAFGGGTKVEIKR
notes: Anti-C1r antibody; also called COR205gg(-SG1148)
B5: COR0011bb-SG1148 (antibody, human IgG1, kappa, V domains shown)
VH: QSLEESGGRLVTPGTPLTLTCTASGFTFSGYYMCWVRQTPGKGLEYIGIIASSGNTYYANWAKGRFTISKTSSTTVDLKMTSLTTEDTATYFCAKPESDYVNGMGLWGPGTLVTVSS
VL: DIVMTQTPASVSDPVGGTVTIKCQASQSIYNLLSWYQQKPGQRPKLLIYDASKLASGVPSRFKGSGYGTDFTLTISDLGCADAATYYCQSNYGYSRTDDTFFYGFGGGTKVEIKR
notes: Anti-C1r antibody
B6: COR0067ff-SG1148 (antibody, human IgG1, kappa, V domains shown)
VH: QSLEESGGGLVQPEGSLTLTCKASGIDFSSNAMCWVRQAPGKGLEWIGCIYTGSTTIWYASWAKGRFTISKTSSTTVTLQLNSLTVADTATYFCARRDSSSGYAFKLWGPGTLVTVSS
VL: DIVMTQTPSSVSAAVGGTVTIKCQASENIYSNLAWYQQKSGQPPNLLIYGASTLESGVPSRFKGSGSGTEFTLTISDLECADAAIYYCQCTYDDSSTFGGGTKVEIKR
notes: Anti-C1r antibody
B7: COR0338gg-SG1148 (antibody, human IgG1, kappa, V domains shown)
VH: B6 VH with G48A, S61T, D98A
VL: B6 VL with I2V, S9F, N28S, S40P, A81D
notes: Anti-C1r antibody
B8: COR0058bb-SG1148 (antibody, human IgG1, kappa, V domains shown)
VH: QSVEESGGRLVTPGTPLTLTCTASGFDISNYNMQWVRQSPGKGLEWIGIIWSGGYTDYANWAKGRFTISATSTTVDLKSTSPTTEDTATYFCARQGANFGDYTVDLWGPGTLVTVSS
VL: AYDMTQTPASVEVAVGGTVTIKCQASQSIRSSLAWYQQKPGQRPKLLIYRASTLASGVSSRFKGSGSGTQFTLTISGVECADAATYYCQQGYSNINVDNTFGGGTKVEIKR
notes: Anti-C1r antibody

Changes are numbered by the printed parent chain.

Consider eight molecules from patent US20210198347A1 (Chugai, published 2021).

In one assay the target is T1, recombinant human C1r CCP1-CCP2-SP-FLAG. The assay can be described thus: SPR (BIACORE T200, 37 degrees C, pH 7.4, 1.2 mM CaCl2), antibody captured by protein A/G.
For B1, the binding result is listed as “no binding (tested: 50 nM)”.

With B2, the binding result is recorded as “no binding (tested: 50 nM)”.

Consider B3, for which the binding result is on record as “no binding (tested: 50 nM)”.

On to B4, for which the binding result was “no binding (tested: 50 nM)”.

With B5, the binding result was “no binding (tested: 50 nM)”.

On to B6, for which the binding result is reported as “no binding (tested: 50 nM)”.

For the molecule B7, the binding result is “no binding (tested: 50 nM)”.

For B8, the binding result was “no binding (tested: 50 nM)”.

The target in the next assay is T2, Native human C1r enzyme (Comptech A102). Kind of assay: SPR (BIACORE T200, 37 degrees C, pH 7.4), antibody captured by protein A/G, C1r 25 nM as a dimer. As to the method:
The binding specificities of human C1r CUB1-EGF-CUB2 binders are determined at 37 degrees C. using BIACORE® T200 instrument (GE Healthcare). Recombinant Protein A/G (Pierce) is immobilized onto all flow cells of a CM4 sensor chip using an amine coupling kit (GE Healthcare). Antibodies and analytes are prepared in 7(+) buffer (20 mM ACES, 150 mM NaCl, 1.2 mM CaCl₂, 0.05% Tween 20, 1 mg/mL BSA (IgG-free), 1 mg/mL CMD, 0.005% NaN₃, pH 7.4). Each antibody is captured onto the sensor surface by protein A/G. Antibody capture levels are aimed at 100 resonance unit (RU). Native human C1r enzyme (Comptech A102) (at 25 nM as a dimer) or recombinant human C1r CCP1-CCP2-SP-FLAG (at 50 nM as a monomer) is injected, followed by dissociation. Sensor surface is regenerated each cycle with 10 mM Glycine-HCl pH 1.5. It may be determined that C1r CUB1-EGF-CUB2 binders bound to the native human C1r enzyme , but not recombinant human C1r CCP1-CCP2-SP-FLAG, which is a truncated protein lacking the CUB1-EGF-CUB2 domain of C1r.
(In SPR one partner is held on a chip, and binding of the other changes the refractive index at the surface.)
For the molecule B1, the binding result is reported as “binds”.

With B2, the binding result is “binds”.

As to B3, the binding result is listed as “binds”.

As for B4, the binding result was “binds”.

Take B5: the binding result was “binds”.

B6: the binding result is on record as “binds”.

Consider B7, for which the binding result is given as “binds”.

In the case of B8, the binding result is given as “binds”.
